Experimental data published in patent US20150344570A1 (published 2015).

T1: FcγRIIb extracellular domain with C-terminal His tag (human, UniProt P31994 43-217)
T1 construct: extracellular domain; Soluble receptor expressed in FreeStyle293 cells and used as analyte in Biacore; also called FcgRIIb; 2b; not shown: His tag at the C terminus
T1 sequence (looked up): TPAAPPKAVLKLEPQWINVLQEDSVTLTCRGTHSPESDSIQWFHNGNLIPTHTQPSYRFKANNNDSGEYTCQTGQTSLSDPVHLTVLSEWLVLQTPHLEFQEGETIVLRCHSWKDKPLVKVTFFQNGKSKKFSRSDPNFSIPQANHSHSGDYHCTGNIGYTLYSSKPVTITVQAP

B1: GpH7-A5/GpH7-B3 variant I336_02A/GpL16-k0 (antibody, human IgG1, kappa)
heavy 1: not shown
heavy 2: not shown
light: DIVMTQSPLSLPVTPGEPASISCQASESLVHSNRNTYLHWYLQKPGQSPQLLIYKVSNRFSGVPDRFSGSGSGTDFTLKISRVEAEDVGVYYCSQNTHVPPTFGQGTKVEIERTVAAPSVFIFPPSDEQLKSGTASVVCLLNNFYPREAKVQWKVDNALQSGNSQESVTEQDSKDSTYSLSSTLTLSKADYEKHKVYACEVTHQGLSSPVTKSFNRGEC
notes: Heterodimerized anti-glypican-3 IgG1 (He Ab); The mutation is in the GpH7-B3 chain only; also called He Ab with I336A in GpH7-B3
B2: GpH7-A5/GpH7-B3 variant (H268D)/GpL16-k0 (antibody, human IgG1, kappa)
heavy 1: not shown
heavy 2: not shown
light: B1 light
notes: also called He Ab H268_09D
B3: GpH7-A5/GpH7-B3 variant K334_14T/GpL16-k0 (antibody, human IgG1, kappa)
heavy 1: not shown
heavy 2: not shown
light: B1 light
notes: Heterodimerized anti-glypican-3 IgG1 (He Ab); The mutation is in the GpH7-B3 chain only; also called He Ab with K334T in GpH7-B3
B4: GpH7-A5/GpH7-B3 variant K334_13S/GpL16-k0 (antibody, human IgG1, kappa)
heavy 1: not shown
heavy 2: not shown
light: B1 light
notes: Heterodimerized anti-glypican-3 IgG1 (He Ab); The mutation is in the GpH7-B3 chain only; also called He Ab with K334S in GpH7-B3
B5: GpH7-A5/GpH7-B3 variant I336_13S/GpL16-k0 (antibody, human IgG1, kappa)
heavy 1: not shown
heavy 2: not shown
light: B1 light
notes: Heterodimerized anti-glypican-3 IgG1 (He Ab); The mutation is in the GpH7-B3 chain only; also called He Ab with I336S in GpH7-B3
B6: GpH7-A5/GpH7-B3 variant (A330M)/GpL16-k0 (antibody, human IgG1, kappa)
heavy 1: not shown
heavy 2: not shown
light: B1 light
notes: also called He Ab A330_06M
B7: GpH7-A5/GpH7-B3 variant (H268E)/GpL16-k0 (antibody, human IgG1, kappa)
heavy 1: not shown
heavy 2: not shown
light: B1 light
notes: also called He Ab H268_10E
B8: GpH7-A5/GpH7-B3 variant K334_20W/GpL16-k0 (antibody, human IgG1, kappa)
heavy 1: not shown
heavy 2: not shown
light: B1 light
notes: Heterodimerized anti-glypican-3 IgG1 (He Ab); The mutation is in the GpH7-B3 chain only; also called He Ab with K334W in GpH7-B3
B9: GpH7-A5/GpH7-B3 variant I336_14T/GpL16-k0 (antibody, human IgG1, kappa)
heavy 1: not shown
heavy 2: not shown
light: B1 light
notes: Heterodimerized anti-glypican-3 IgG1 (He Ab); The mutation is in the GpH7-B3 chain only; also called He Ab with I336T in GpH7-B3
B10: GpH7-A5/GpH7-B3 variant T335_09D/GpL16-k0 (He Ab) (antibody, human IgG1, kappa)
heavy 1: not shown
heavy 2: not shown
light: B1 light
notes: Heterodimerized anti-glypican-3 antibody; the alteration stands only in the GpH7-B3 chain
B11: GpH7-A5/GpH7-B3 variant Y296_20W/GpL16-k0 (He Ab) (antibody, human IgG1, kappa)
heavy 1: not shown
heavy 2: not shown
light: B1 light
notes: as for B10
B12: GpH7-A5/GpH7-B3 variant (K334D)/GpL16-k0 (antibody, human IgG1, kappa)
heavy 1: not shown
heavy 2: not shown
light: B1 light
notes: also called He Ab K334_09D
B13: GpH7-A5/GpH7-B3 variant I336_03V/GpL16-k0 (antibody, human IgG1, kappa)
heavy 1: not shown
heavy 2: not shown
light: B1 light
notes: Heterodimerized anti-glypican-3 IgG1 (He Ab); The mutation is in the GpH7-B3 chain only; also called He Ab with I336V in GpH7-B3
B14: GpH7-A5/GpH7-B3 variant K334_19Q/GpL16-k0 (antibody, human IgG1, kappa)
heavy 1: not shown
heavy 2: not shown
light: B1 light
notes: Heterodimerized anti-glypican-3 IgG1 (He Ab); The mutation is in the GpH7-B3 chain only; also called He Ab with K334Q in GpH7-B3

What was measured:
[1] = target: T1, FcγRIIb extracellular domain with …; test: SPR (Biacore), antibody captured on antigen-peptide chip, FcγR as analyte; relative binding amount
Procedure: (§1) The heterodimerized antibodies He Abs in which one of the H chains was introduced with an alteration were assayed for their binding activities to each activating FcγR and inhibitory FcγR according to the method described in Example 4. […] The activating FcγRs in FIGS. 26, 27, 28, and 29 are FcγRIa, FcγRIIa (R), FcγRIIa (H), and FcγRIIIa, respectively.
(§2) Analysis of interaction between objective antibody and the FcγR was carried out using Biacore T100 (GE Healthcare). HBS-EP+ (GE Healthcare) was used as the running buffer, and the measurement temperature was set to 25° C. Chips produced by immobilizing the antigen peptide by the amine coupling method to a Series S Sencor Chip CM5 (GE Healthcare), or alternatively, chips produced by allowing preliminarily biotinylated antigen peptides to interact with and immobilize onto a Series S Sensor Chip SA (certified) (GE Healthcare) were used. Antibodies of interest were captured onto an antigen peptide-immobilized chip, and allowed to interact to each FcγR diluted with running buffer. To regenerate and repeatedly use the chip, the antibodies captured on the chip were washed off by reacting 10 mM glycine-HCl, pH 1.5.

[2] = target: T2, FcγRIIIa extracellular domain with C-terminal His tag (human, UniProt P08637 17-208); test: as above
T2 construct: extracellular domain; also called FcgRIIIa; 3a; not shown: His tag at the C terminus
T2 sequence (P08637 17-208): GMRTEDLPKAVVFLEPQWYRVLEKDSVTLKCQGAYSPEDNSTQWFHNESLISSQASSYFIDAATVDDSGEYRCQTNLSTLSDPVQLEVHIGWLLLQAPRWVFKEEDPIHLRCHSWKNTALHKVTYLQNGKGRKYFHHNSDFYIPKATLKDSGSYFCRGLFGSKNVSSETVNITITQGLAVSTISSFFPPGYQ
Procedure: as §1, §2

[3] = target: T2, FcγRIIIa extracellular domain with …; test: SPR (Biacore); He/Con for FcγRIIIa divided by He/Con for FcγRIIb
Procedure: as §1, §2

[4] = target: T3, FcgRIIIa F (FcγRIIIa type F) extracellular domain with C-terminal His tag (human, UniProt P08637 17-208); test: SPR (Biacore); relative binding activity of the heterodimerized antibody with the alteration in one H chain
T3 construct: extracellular domain; also called FcγRIIIa F; 3aF; not shown: His tag attached to the C terminus
T3 sequence (P08637 17-208): as above

[5] = target: T4, FcγRIIIa (human, UniProt P08637 17-208); test: SPR (Biacore), antibody captured on antigen-peptide chip, FcγR as analyte; binding of He Ab / binding of HeCon Ab GpH7-A5/GpH7-B3/GpL16-k0 x 100
T4 construct: extracellular domain; also called 3a; FcgRIIIa
T4 sequence (P08637 17-208): as above

| Binder | He/Con_2b (IIb binding) [1] | He/Con_3a (IIIa binding) [2] | He_3a/2b (IIIa/IIb) [3] | He/Con_3aF [4] | He/Con_3a [5] |
| --- | --- | --- | --- | --- | --- |
| B1 | 84.9 relative, GpH7-A5/GpH7-B3/GpL16-k0 = 100 | 111 relative, GpH7-A5/GpH7-B3/GpL16-k0 = 100 | 1.31 ratio | – | – |
| B2 | – | – | – | 195 % of GpH7-A5/GpH7-B3/GpL16-k0 (= 100) | – |
| B3 | 115 relative, GpH7-A5/GpH7-B3/GpL16-k0 = 100 | 141 relative, GpH7-A5/GpH7-B3/GpL16-k0 = 100 | 1.23 ratio | – | – |
| B4 | 111 relative, GpH7-A5/GpH7-B3/GpL16-k0 = 100 | 145 relative, GpH7-A5/GpH7-B3/GpL16-k0 = 100 | 1.31 ratio | – | – |
| B5 | 83.7 relative, GpH7-A5/GpH7-B3/GpL16-k0 = 100 | 102 relative, GpH7-A5/GpH7-B3/GpL16-k0 = 100 | 1.21 ratio | – | – |
| B6 | – | – | – | 139 % of GpH7-A5/GpH7-B3/GpL16-k0 (= 100) | – |
| B7 | – | – | – | 184 % of GpH7-A5/GpH7-B3/GpL16-k0 (= 100) | – |
| B8 | 104 relative, GpH7-A5/GpH7-B3/GpL16-k0 = 100 | 128 relative, GpH7-A5/GpH7-B3/GpL16-k0 = 100 | 1.23 ratio | – | – |
| B9 | 89.5 relative, GpH7-A5/GpH7-B3/GpL16-k0 = 100 | 108 relative, GpH7-A5/GpH7-B3/GpL16-k0 = 100 | 1.21 ratio | – | – |
| B10 | – | – | – | – | 108 relative to control = 100 |
| B11 | – | – | – | – | 135 relative to control = 100 |
| B12 | – | – | – | 164 % of GpH7-A5/GpH7-B3/GpL16-k0 (= 100) | – |
| B13 | 90.3 relative, GpH7-A5/GpH7-B3/GpL16-k0 = 100 | 112 relative, GpH7-A5/GpH7-B3/GpL16-k0 = 100 | 1.24 ratio | – | – |
| B14 | 109 relative, GpH7-A5/GpH7-B3/GpL16-k0 = 100 | 136 relative, GpH7-A5/GpH7-B3/GpL16-k0 = 100 | 1.25 ratio | – | – |
